The results in this text go back to article PMC11384143 (2024).

What is called Kd is the constant that tells how readily two partners part at equilibrium. A word on the koff: it is the rate constant with which the complex falls apart. Broadly, the IC50 is the concentration needed to halve the response being measured. A lower IC50 goes with higher potency.

Sequences and labels used below:
B1: 6 × His tagged huSIRPγ ECD recombinant protein (domain or fragment)
chain: EEELQMIQPEKLLLVTVGKTATLHCTVTSLLPVGPVLWFRGVGPGRELIYNQKEGHFPRVTTVSDLTKRNNMDFSIRISSITPADVGTYYCVKFRKGSPENVEFKSGPGTEMALGAKPSAPVVLGPAARTTPEHTVSFTCESHGFSPRDITLKWFKNGNELSDFQTNVDPTGQSVAYSIRSTARVVLDPWDVRSQVICEVAHVTLQGDPLRGTANLSEAIRVPPTLEVTQQPMRVGNQVNVTCQVRKFYPQSLQLTWSENGNVCQRETASTLTENKDGTYNWTSWFLVNISDQRDDVVLTCQVKHDGQLAVSKRLALEVTVHQKDQSSDATP

Like-named read-outs stand apart in the source and are kept apart here.

In experiment [1] the target is ES004-B5. Put plainly: SPR. For orientation: SPR reads the build-up and loss of mass on a sensor chip optically.
Experiment [2] concerns the target ES004-B5. Put plainly: SPR. The source holds these as a separate data set.
The target of experiment [3] is B1. Description: SPR.
For experiment [4], the target named is huSIRPα V2 overexpressed on CHOK1/hSIRPα V2 cells (human, UniProt P78324 31-504). Description: FACS; competition with huCD47 ECD. On the technique in general: Flow cytometry measures light scatter and fluorescence of single cells or particles in a stream.
Experiment [5] addresses huSIRPα V1 overexpressed on CHOK1/hSIRPα V1 cells (human, UniProt P78324 31-504). Description: FACS; competition with huCD47 ECD.
For experiment [6], the target named is B1. Put plainly: SPR.
In experiment [7] the target is T1, 6 × His tagged huSIRPα V1 ECD recombinant protein (human, UniProt P78324 31-373). Put plainly: SPR.
For experiment [8], the target named is T1, 6 × His tagged huSIRPα V1 ECD …. Description: SPR. The source holds these as a separate data set.

T1 sequence (P78324 31-373): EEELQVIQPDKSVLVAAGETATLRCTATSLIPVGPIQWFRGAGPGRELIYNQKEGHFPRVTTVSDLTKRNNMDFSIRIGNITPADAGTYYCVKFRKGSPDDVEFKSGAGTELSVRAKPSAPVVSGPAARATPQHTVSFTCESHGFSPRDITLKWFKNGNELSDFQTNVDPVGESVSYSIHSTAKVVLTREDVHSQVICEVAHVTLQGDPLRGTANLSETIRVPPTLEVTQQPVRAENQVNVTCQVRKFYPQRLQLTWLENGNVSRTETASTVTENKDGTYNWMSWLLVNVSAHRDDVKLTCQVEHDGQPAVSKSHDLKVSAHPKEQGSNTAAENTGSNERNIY
Sequence of huSIRPα V1 overexpressed on CHOK1/hSIRPα V1 cells (P78324 31-504): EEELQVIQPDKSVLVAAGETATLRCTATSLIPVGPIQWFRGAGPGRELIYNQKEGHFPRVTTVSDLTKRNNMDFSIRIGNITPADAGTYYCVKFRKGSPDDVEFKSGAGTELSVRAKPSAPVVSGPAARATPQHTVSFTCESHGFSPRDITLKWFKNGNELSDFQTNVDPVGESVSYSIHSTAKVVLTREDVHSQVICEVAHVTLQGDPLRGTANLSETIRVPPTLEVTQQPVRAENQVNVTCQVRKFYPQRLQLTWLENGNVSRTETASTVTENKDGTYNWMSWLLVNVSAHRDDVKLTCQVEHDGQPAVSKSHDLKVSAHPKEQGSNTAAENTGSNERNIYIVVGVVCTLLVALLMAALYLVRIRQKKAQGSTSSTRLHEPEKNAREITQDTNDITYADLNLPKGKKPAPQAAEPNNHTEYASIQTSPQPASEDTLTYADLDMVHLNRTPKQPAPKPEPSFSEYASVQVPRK
Sequence of huSIRPα V2 overexpressed on CHOK1/hSIRPα V2 cells (P78324 other isoform, or with tags, fused parts or gaps): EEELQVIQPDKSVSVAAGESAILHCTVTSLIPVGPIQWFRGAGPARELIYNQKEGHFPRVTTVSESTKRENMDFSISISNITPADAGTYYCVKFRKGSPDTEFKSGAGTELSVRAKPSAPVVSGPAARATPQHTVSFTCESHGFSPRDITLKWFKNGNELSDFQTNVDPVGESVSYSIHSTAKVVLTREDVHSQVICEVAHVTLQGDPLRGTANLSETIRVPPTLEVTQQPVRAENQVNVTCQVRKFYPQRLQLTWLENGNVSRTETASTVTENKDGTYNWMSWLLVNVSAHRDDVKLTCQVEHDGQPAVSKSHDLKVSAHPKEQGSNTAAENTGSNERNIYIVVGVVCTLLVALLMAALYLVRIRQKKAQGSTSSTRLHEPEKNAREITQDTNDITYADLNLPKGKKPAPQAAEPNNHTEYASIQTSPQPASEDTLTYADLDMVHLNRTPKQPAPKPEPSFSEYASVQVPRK

In the case of B1, in the experiment with ES004-B5 [1], the Kd was found to be 2.81 nM and the koff amounted to 0.00422 s⁻¹.

B2: 6 × His tagged cynomolgus SIRPα ECD recombinant protein (domain or fragment)
chain: EEELQVIQPEKSVSVAAGDSATLNCTVSSLIPVGPIQWFRGAGPGRELIYNLKEGHFPRVTPVSDPTKRNNMDFSIRISNITPADAGTYYCVKFRKGSPDVELKSGAGTELSVRAKPSAPVVSGPAVRATAEHTVSFTCESHGFSPRDITLKWFKNGNELSDVQTNVDPAGKSVSYSIRSTARVVLTRRDVHSQVICEVAHVTLQGDPLRGTANLSEAIRVPPFLEVTQQSMRADNQVNVTCQVTKFYPQRLQLTWLENGNVSRTEMASALPENKDGTYNWTSWLLVNVSAHRDDVKLTCQVEHDGQPAVNKSFSVKVSAHPKEQGSNTAAENTGTNERN
In the experiment with ES004-B5 [2], B2 gave a Kd of 6.01 nM and a koff of 0.00729 s⁻¹.

B3: hu1H9 (an analogue of FSI-189, Gilead) (antibody, V domains shown)
VH: QVQLVQSGAEVKKPGASVKVSCKASGYTFTSYWITWVKQAPGQGLEWIGDIYPGSGSTNHIEKFKSKATLTVDTSISTAYMELSRLRSDDTAVYYCATGYGSSYGYFDYWGQGTLVTVSS
VL: DIQMTQSPSSLSASVGDRVTITCRASENIYSYLAWYQQKPGKAPKLLIYTAKTLAEGVPSRFSGSGSGTDFTLTISSLQPEDFATYYCQHQYGPPFTFGQGTKLEIK
In the case of B3, the figures for the equilibrium dissociation constant (Kd) in experiment [3] and in experiment [8] were 20.7 nM and 1.91 nM, respectively. Besides, the results for the IC50 in experiment [4] and in experiment [5] were 6.04 nM and 1.17 nM, respectively. Also, the koff in experiment [6] was 0.0135 s⁻¹; in experiment [7], 0.00187 s⁻¹.

B4: HEFLB (an analogue of BI 765063) (antibody, V domains shown)
VH: EVQLVQSGAEVKKPGESLRISCKASGYSFTSYWVHWVRQMPGKGLEWMGNIDPSDSDTHYSPSFQGHVTLSVDKSISTAYLQLSSLKASDTAMYYCVRGGTGTLAYFAYWGQGTLVTVSS
VL: DVVMTQSPLSLPVTLGQPASISCRSSQSLVHSYGNTYLYWFQQRPGQSPRLLIYRVSNRFSGVPDRFSGSGSGTDFTLKISRVEAEDVGVYYCFQGTHVPYTFGGGTKVEIK
For the molecule B4, the IC50 in experiment [5] was determined as 1.29 nM. In addition, the koff in experiment [7] is 0.00631 s⁻¹. Moreover, in experiment [8], the Kd was determined as 12.8 nM.
